The supplement of paper PMC12764529
± gives the half width of the 95% confidence interval.

Test: folding stability dG unfold from trypsin proteolysis; higher = more stable
Method in brief: (§1)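 How resistant each design was to proteolysis was captured as K50, inferred by Bayesian fitting of sequencing counts. Unfolding free energy was then derived relative to a sequence-predicted unfolded-state K50 and a shared folded-state K50, per protease or combined. Digestion used trypsin and chymotrypsin at 11 threefold-diluted concentrations plus a no-protease condition, on mini-proteins under 80 residues without cysteine in a PA-tagged cDNA display construct. Designs were kept only when AlphaFold2 dimer inter-PAE was above 15.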

Sequence | folding stability dG unfold [kcal/mol]
SPFIMIRIDIERKNGKEVEMMFPVPANNIKNNLRDHLGPGYKVKITDIEPIDPEQFPPGQMIKIRYRVKPSA [r9_803_TrROS] | 1.73 ± 0.048
SAGMVEVLEEKTDPNSDLVTVTLYAPDVPDGFRVVVYPKDGVPIEISIKRGEEVVLKLPANVEKIEFIGSAG [r14_671_JUSTAS] | 2.55 ± 0.083
SAGGIKELAKKGYEIKEVTVRVRNKDGSVYEITEIKVVDGELYIKVKNKKTGKIEEKKIPLKDIEIVPSAGG [r13_340_TrROS_Hall] | 1.19 ± 0.045
SAGGSAGGSAGSVTVSSTTTTLTDSMRVITETFTSPDLVKVTFVPTSNPEDVTVTTLPSASAGGSAGGSAGG [r11_1046_JUSTAS] | -0.417 ± 0.093
SAGGSAGGSLRLRVTFTVTVTFLDGNRLRPAKVEITVEIELEPIPPELLRPRPLPGDKLEYDLSAGGSAGGS [r12_1031_TrMRF] | 2.72 ± 0.17
VDLGIRTESVGGRRYRVLIRRPGTGEPRVLEVEGTLEEARERALREIREEYPDLPVRSINPVPVPAPPWLES [r1_80_TrMRF] | -0.153 ± 0.19
SAGGMIAEIKPIPPNVPDGATATITFPDGTPAEAELRTEPLEDGPRRVVLKLKGKEGEIELEFVLPLSAGGS [r8_360_TrMRF] | 0.16 ± 0.13
SAGGSAGGKKYRVVVYNPETGEWVEVEEVEFDPETGEVRVRLPGSGKEVTIPKDYPVYLNPELDSAGGSAGG [r6_884_TrMRF] | 2.21 ± 0.035
SAGGMEEVIKELAKSLGVTKILPESEAKKLSSSVPNALAAVKLPDGSYVLIKRNSDGSVSSIKYKLESAGGS [r16_686_JUSTAS] | 1.14 ± 0.018
SAKEEYYKVRIYFPETNEVVEIEAKSEEEALEALKKLLNEPNIVKIEIEKVEVEEEPEEKEYSEEELKSSAG [r14_747_TrROS_Hall] | 2.02 ± 0.04
SAGGSAGNPKPVVLEVEVVLDIPPENPDVLRAQAEAVARALAKPGLRVEVLDYDPDKAAFTIRITGSAGGSA [r15_563_TrMRF] | 1.71 ± 0.039
SAGGSAGGSAGGKRTLLIRVPPGASVEQVLEELKRLLPPGAKITVELDPETRTLRVTIDSAGGSAGGSAGGS [r10_163_TrROS_Hall] | 3.28 ± 0.075
SAGGAEQAREILKEWGFEISEVDPKKKTVQVTPPESGMPISIDVDEPGQIKIKIRMNGKPRTFEIPPSAGGS [r16_197_TrROS] | -0.329 ± 0.24
SAGKIEIVEVTKNYVKIKIKNKKTNKTIEIKIPVKKKKGKKLSKEELEELAKKLAKELYPDMKIEVEKVSAG [r5_293_TrROS_Hall] | 2.24 ± 0.091
SAGGSAGGSAGGSMYIKIPGEPGDLREVVIEGKKVKVTPDANNPDKVTYTLPDGTKIALSAGGSAGGSAGGS [r4_488_JUSTAS] | 0.117 ± 0.064
SAGGSAGGSAPVFLRVEVENPNGERFELTAKLGDPIEIDPSVVDNVKVEVFDPDGNKAEFELNSAGGSAGGS [r12_380_TrMRF] | 0.284 ± 0.042
SAGGSAGGSAMKYTVTVTLPNGTTLTLDVGTETEEEAVSETKKLIAEKYPDVKGAKIDLTKESAGGSAGGSA [r18_434_JUSTAS] | 1.88 ± 0.11
SAGGSKWRMYEITLELGDKPVKITVYYMDGNYSVAIKFPPGRKVDIPFDGPMSPEDAAKKALEALGSAGGSA [r2_92_TrROS] | 2.34 ± 0.056
SAGGSAGGAPQGSTSSLTDPSTGLRYASTNPPGTSSSFTFPPSVSPEEVAARLRAQGVAGLNLSSAGGSAGG [r6_83_JUSTAS] | -0.81 ± 0.35
SAGGSAGPMSVKEYEFEAVVPPGEEEAWVEEYIKKEFKSKIVKIEVKREKLPDGTYRVPVKITVKESAGGSA [r15_138_JUSTAS] | 0.433 ± 0.029
SAGGSAKMKITVEKNEDGELYVLIEVDSVEELEEALKKLPGIEKVEVEVFVDEETKRVYILVRVKPSAGGSA [r15_344_TrROS_Hall] | 2.36 ± 0.071

Sequence | folding stability dG unfold [kcal/mol]
SAGGGMKLTITVTNADGSTTTETLTLGDLEKALEFLESDPTASLASIEIKPVPDTSEVEMNVSLTVPASAGG [r13_796_JUSTAS] | 1.29 ± 0.056
SAGGSAGGSMPFKIDVEVERHPEDNMYQVEITFPGNREIPIMVDDPSDPEKAKNIAKEFAKQLSAGGSAGGS [r12_1012_TrROS] | 0.13 ± 0.082
SAGGSAMDPSKLVRKKVRFRVVDPNGKPLGEIDIEVEFPGGVSEEEAEELLRELIAALAPPAGVEGSAGGSA [r15_310_TrMRF] | 1.52 ± 0.022
SAKTLTIEELAKKLKEELEKKTGKKLSKEELKKKALELAKKLAEEKGLKIKSVKVEEKDGKLTVTVEVESAG [r14_147_TrROS_Hall] | 3.2 ± 0.16
SAGGSAGGSGVLVRITATHPDGSTEEVLEIEVPNDENDPAKLKAIAEELAKKAGMKNIKIELLSAGGSAGGS [r12_569_JUSTAS] | 1.95 ± 0.047
SAGGSAGGSAGGEKTIVISEEEAEKLAKELEKKGLTVERKPDGTLKVNGKEIRIIVVEPSAGGSAGGSAGGS [r10_930_TrROS_Hall] | 0.758 ± 0.077
SAGGSAGGSGSMLPITTVTPTPDGVWKITYELPDGSTRTITVPPDDLSLSGPPSSSGSSAALASAGGSAGGS [r20_194_JUSTAS] | 1.28 ± 0.091
SAGGSAGGSAPNLEVEEQRNPDGGMEMEIIRLKNDGLTIFFMEMRPDDKTMTMLMLMPLDASAGGSAGGSAG [r3_126_TrROS] | 2.19 ± 0.19
SAGGDPSATPVVVEFTLPDGARAVATTFPSGVVVARVFNPVTGRTTEVTVTVVPESATATVTVRPNPDSAGG [r13_822_TrMRF] | 0.762 ± 0.027
SAGMTIVVEVPKKDITPEELAKKLEERFGLKVVEIKVEEVEEDKVRVTIRFEETGETLELTAEEIKELLSAG [r5_550_TrROS_Hall] | 4.6 ± 0.34
SAGGSMTISLDETIDVPEDVGVTFTFADDTVATAYFDPSEGKVRVVVYDPNKPGTLLGEFTLPVLPSAGGSA [r2_266_TrMRF] | 0.976 ± 0.017
SAGGSAPEALVFVERREDDSLTVVVLFPDGTLVTRRVEVRDEGVTVETETAPVLVIPEPGRLELALSAGGSA [r15_746_TrMRF] | 0.595 ± 0.029
SAMERVEIVVKVKVRPDMSLEELKERVERELRRLLEERGIELPEGAKITVEIVEETEDYVVVKVTIELPSAG [r14_735_TrROS_Hall] | 4.53 ± 0.24
SAGGSAGGELELELTVRLPNGLEVRIRARVKFDEETNEWTITEIEIEIRPLPPPPVLDKDGKLVSAGGSAGG [r6_506_TrROS_Hall] | 3.24 ± 0.19
SAGGSAGGSAGGETIELKLPNGKVLRVEKDKEKGKTYKIYDTKTKKLVKTFKSKEALKKASAGGSAGGSAGG [r7_72_TrROS_Hall] | 0.755 ± 0.07
SAGGSAGGSAGGQTIVIDSRLLRTALENGDLEKLKALVEEAGYNPENAKIYLITPEELKESAGGSAGGSAGG [r7_3_TrMRF] | -0.133 ± 0.1
SAGGSAGGSKVKIETVENEDGVKFERVVDEETGKTVFLAKNKKTGKLYLFVITPDGEIKVFELSAGGSAGGS [r12_474_TrROS_Hall] | 1.42 ± 0.033
SAGGPEVFVFRDPLTGTWSLAVYDPSTGLWTVTYPDGTVALYRRSGDSWELVEARPVPPAPVDPDLASAGGS [r16_687_TrMRF] | 3.34 ± 0.12
SAGGSMIEVERDPNDPNRYRARLPVIEENPPEPKLVYVDVYVDPENGLVYARAVTEDGGEAEFRFESAGGSA [r2_428_TrMRF] | 0.448 ± 0.12
SAGGSAGGSGKPLLLVRLKIRNKETGEEETVVLEADSLDEALARLPPGAEIVSIEVVRLDLPPSAGGSAGGS [r12_208_TrROS_Hall] | 4.34 ± 0.16
SAGGMLPGEPEVELVLEIEIDVPPGEISAEELERLLRELFPGAEVVDVRVEEEGGKLRIEVVIRLPPSAGGS [r8_202_TrROS_Hall] | 3.42 ± 0.14

Test: folding stability dG unfold from chymotrypsin proteolysis; higher = more stable
Method in brief: as §1

Sequence | folding stability dG unfold [kcal/mol]
SPFIMIRIDIERKNGKEVEMMFPVPANNIKNNLRDHLGPGYKVKITDIEPIDPEQFPPGQMIKIRYRVKPSA [r9_803_TrROS] | 1.71 ± 0.13
SAGMVEVLEEKTDPNSDLVTVTLYAPDVPDGFRVVVYPKDGVPIEISIKRGEEVVLKLPANVEKIEFIGSAG [r14_671_JUSTAS] | 2.41 ± 0.044
SAGGIKELAKKGYEIKEVTVRVRNKDGSVYEITEIKVVDGELYIKVKNKKTGKIEEKKIPLKDIEIVPSAGG [r13_340_TrROS_Hall] | 2.12 ± 0.029
SAGGSAGGSAGSVTVSSTTTTLTDSMRVITETFTSPDLVKVTFVPTSNPEDVTVTTLPSASAGGSAGGSAGG [r11_1046_JUSTAS] | 1.04 ± 0.026
SAGGSAGGSLRLRVTFTVTVTFLDGNRLRPAKVEITVEIELEPIPPELLRPRPLPGDKLEYDLSAGGSAGGS [r12_1031_TrMRF] | 3.29 ± 0.045
VDLGIRTESVGGRRYRVLIRRPGTGEPRVLEVEGTLEEARERALREIREEYPDLPVRSINPVPVPAPPWLES [r1_80_TrMRF] | -0.154 ± 0.14
SAGGMIAEIKPIPPNVPDGATATITFPDGTPAEAELRTEPLEDGPRRVVLKLKGKEGEIELEFVLPLSAGGS [r8_360_TrMRF] | -0.488 ± 0.31
SAGGSAGGKKYRVVVYNPETGEWVEVEEVEFDPETGEVRVRLPGSGKEVTIPKDYPVYLNPELDSAGGSAGG [r6_884_TrMRF] | 3.163 ± 0.03
SAGGMEEVIKELAKSLGVTKILPESEAKKLSSSVPNALAAVKLPDGSYVLIKRNSDGSVSSIKYKLESAGGS [r16_686_JUSTAS] | 1.83 ± 0.087
SAKEEYYKVRIYFPETNEVVEIEAKSEEEALEALKKLLNEPNIVKIEIEKVEVEEEPEEKEYSEEELKSSAG [r14_747_TrROS_Hall] | 2.39 ± 0.046
SAGGSAGNPKPVVLEVEVVLDIPPENPDVLRAQAEAVARALAKPGLRVEVLDYDPDKAAFTIRITGSAGGSA [r15_563_TrMRF] | 1.84 ± 0.064
SAGGSAGGSAGGKRTLLIRVPPGASVEQVLEELKRLLPPGAKITVELDPETRTLRVTIDSAGGSAGGSAGGS [r10_163_TrROS_Hall] | 4.12 ± 0.057
SAGGAEQAREILKEWGFEISEVDPKKKTVQVTPPESGMPISIDVDEPGQIKIKIRMNGKPRTFEIPPSAGGS [r16_197_TrROS] | -0.634 ± 0.87
SAGKIEIVEVTKNYVKIKIKNKKTNKTIEIKIPVKKKKGKKLSKEELEELAKKLAKELYPDMKIEVEKVSAG [r5_293_TrROS_Hall] | 3.86 ± 0.086
SAGGSAGGSAGGSMYIKIPGEPGDLREVVIEGKKVKVTPDANNPDKVTYTLPDGTKIALSAGGSAGGSAGGS [r4_488_JUSTAS] | 0.957 ± 0.14
SAGGSAGGSAPVFLRVEVENPNGERFELTAKLGDPIEIDPSVVDNVKVEVFDPDGNKAEFELNSAGGSAGGS [r12_380_TrMRF] | 0.611 ± 0.057
SAGGSAGGSAMKYTVTVTLPNGTTLTLDVGTETEEEAVSETKKLIAEKYPDVKGAKIDLTKESAGGSAGGSA [r18_434_JUSTAS] | 2.52 ± 0.038
SAGGSKWRMYEITLELGDKPVKITVYYMDGNYSVAIKFPPGRKVDIPFDGPMSPEDAAKKALEALGSAGGSA [r2_92_TrROS] | 3.579 ± 0.026
SAGGSAGGAPQGSTSSLTDPSTGLRYASTNPPGTSSSFTFPPSVSPEEVAARLRAQGVAGLNLSSAGGSAGG [r6_83_JUSTAS] | 0.339 ± 0.073
SAGGSAGPMSVKEYEFEAVVPPGEEEAWVEEYIKKEFKSKIVKIEVKREKLPDGTYRVPVKITVKESAGGSA [r15_138_JUSTAS] | 0.998 ± 0.12
SAGGSAKMKITVEKNEDGELYVLIEVDSVEELEEALKKLPGIEKVEVEVFVDEETKRVYILVRVKPSAGGSA [r15_344_TrROS_Hall] | 3.62 ± 0.045
